For experiment [1], the target named is IgG in human serum pool from 100 individuals. Nature of the experiment: cell-based or functional assay.
For experiment [2], the target named is Human IgG (fixed concentration, MSD potency assay of Example 4). Nature of the experiment: cell-based or functional assay.

These results are taken from patent US20260028608A1.

B1: pCART239, a variant IdeZ polypeptide of the invention (enzyme)
chain: MDDYQRNATEAYAKEVPHQITSVWTKGVTPPEQFTQGEDVIHAPYLAHQGWYDITKAFNGKDDLLCGAATAGNMLHWWFDQNKTEIEAYLSKHPEKQKIIFRNQELFDLKAAIDTKDSQTNSQLFNYFRDKAFPNLSARQLGVMPDLVLDMFINGYYLNVFKTQSTDVNRPYQDKDKRGGIFDAVFTRGNQTTLLTARHDLKNKGLNDISTIIKQELTEGRALALSHTYANVSISHVINLWGADFNAEGNLEAIYVTDSDANASIGMKKYFVGINAHGHVAISAKKIEGENIGAQVLGLFTLSSGKDIWQKLSGGGHHHHHH
As for B1, the enzyme concentration at which all IgG were converted to scIgG, serum pool with 0.1 mg/ml pCART243 (SDS-PAGE) in experiment [1] worked out at 0.5 µg/ml.

B2: N240, a variant IdeZ polypeptide of the invention (enzyme)
chain: MDDYQRNATEAYAKEVPHQITSVWTKGVTPPEQFTQGEDVIHAPYLAHQGWYDITKAFNGKDDLLCGAATAGNMLHWWFDQNKTEIEAYLSKHPEKQKIIFRNQELFDLKAAIDTKDSQTNSQLFNYFRDKAFPNLSARQLGVMPDLVLDMFINGYYLNVFKTQSTDVNRPYQDKDKRGGIFDAVFTRGNQTTLLTARHDLKNKGLNDISTIIKQELTEGRALALSHTYANVSISHVINLWGADFNAEGNLEAIYVTDSDANASIGMKKYFVGINAHGHVAISAKKIEGENIGAQVLGLFTLSSGKDIWQKLS
In experiment [1], B2 yielded a Relative Potency (%) In Serum, Plate 1 (MSD, from EC50; reference IdeS) of 151%; a Relative Potency (%) In Serum, Plate 1 (MSD, from EC50; reference IdeS; separate dilutions) of 137%; a Relative Potency (%) In Serum, Plate 2 (MSD, from EC50; reference IdeS) of 132%; a Relative Potency (%) In Serum, Plate 2 (MSD, from EC50; reference IdeS; separate dilutions) of 146%. In experiment [1], this molecule had a Relative Potency (%) In serum, Mean value (MSD, from EC50; reference IdeS) of 142% and a Relative Potency (%) In serum, Mean value (MSD, from EC50; reference IdeS; separate dilutions) of 142%. Also, the mean relative potency (EC50Ref/EC50Test x 100%), MSD potency assay of IgG cleavage in experiment [2] is 300%.
